Reference: patent US7470669B2, “Isolated polypeptide comprising a leptin fragment” (Serono Genetics Institute, S.A., priority 1999, dated 2008)

Assays:
LSR = assay: BUD assay of 125I-LDL in PLC cells transfected with truncated human LSR; format: cell-based; details: corrected for total protein, depending on oleate concentration
From the text: Method of Cloning & Testing. • 1. Digest Human LSR plasmids with enzymes of interest under appropriate conditions. Separate the appropriate insert fragment from the vector using agarose gel electrophoresis and Qiaquick gel extraction columns. Note: For constructs 1, 2, 3, 4a, 5, and 6 pTracerCMV2 LSR α was used as the source for the insert. For construct 4b, pTracerCMV2 LSR α′ was used as the source for the insert. For 4c, pTracerCMV2 LSR β was used as the source for the insert. • 2. Digest the pcDNA/HisMax vector in the appropriate reading frame with the enzymes of interest. Purify using agarose gel electrophoresis and Qiaquick gel extraction columns. • 3. If necessary, treat insert fragments with Klenow DNA polymerase or T4 DNA polymerase I to blunt 3′ overhangs. […] Verify correct clones by having them sequenced to ensure that they are in the proper reading frame and that there are no amino acid changes. • 8. […]
BUD Assay Methods: • 1. […] Remove suramin into gamma counter tubes, and count for radioactivity. […] Recover the cell lysates into gamma counter tubes and count for radioactivity. […] After cell lysates have been counted, determine the protein concentration per mL so that data can be reported as ng ^125I-LDL bound/mg of total protein. Protein is determined using the BCA assay from Pierce according to the manufacturer's instructions. […]

ob/ob mice = assay: Postprandial plasma TG response after high-fat test meal in ob/ob mice; format: in vivo, mouse; details: i.v. 0.5 μg recombinant mouse leptin and/or 2.5 mg lactoferrin, mean ± SD
Experimental: FIGS. 11A and 11B show the effect of mouse leptin (FIG. 11A) or leptin peptide (FIG. 11B) on postprandial plasma TG response in ob/ob mice. […] Postprandial triglyceridemia was measured as described previously. Each point represents the mean±SEM (A: saline, n=8, leptin, n=7; leptin peptide: saline, n=8, leptin, n=8). […] Primary cultures of rat hepatocytes were incubated 30 min at 37° C. with increasing concentrations of mouse leptin peptide. Oleate (0.5 mM) and ^125I-LDL (20 μg/mL) were added and the cells were incubated 2 h at 37° C. After washing, the amount of 125I-LDL bound to the cell surface was measured as described in the Examples section herein.
Mice that were fasted for 2-3 hours were gavage-fed 300 μL of a test meal consisting of 60% fat (37% saturated, 27% mono-, and 36% polyunsaturated fatty acids), 20% protein and 20% carbohydrate, and providing 56 kcal of energy/kg (1.5 g butter, 1.5 g sunflower oil, 2.5 g nonfat dry milk, 2.5 g sucrose and 3 ml water). […] TG concentrations were determined using a commercially available enzymatic kit with controls included in each assay (Precinorm L, Roche-Boehringer Mannheim; Lyotrol N, BioMérieux).
The inhibition of the intestinal absorption of dietary lipids by leptin was also investigated. […] Blood samples were taken at 2 and 3 h after the test meal, and plasma TG concentrations were measured (see Table, below). […]

[1] = system: bovine brain capillary endothelial cells; assay: Leptin transcytosis in blood-brain barrier in vitro model; format: cell-based; details: 10 ng/mL 125I-leptin + 2 mg/mL lactoferrin
Experimental: Cells were incubated with ^125I-leptin alone (10,000 dpm/ng) (closed squares), with 1 μg/mL unlabelled leptin (triangles), 50 μg/mL MP (circles), 50 μg/mL HP (open squares), or 2 mg/mL lactoferrin (asterisks).
Human leptin transport through the blood-brain barrier (BBB) is studied using an in vitro model (Dehouck, et al J Neurochem 54:1798-801, 1990 hereby incorporated herein by reference in its entirety including any figures, tables, or drawings). This model closely mimics the in vivo situation with regard to the selective passage of nutrients and drugs through the cerebro-vascular endothelium. […] Briefly, this model consists of a co-culture of bovine brain capillary endothelial cells (ECs) and rat astrocytes (FIG. 31). The astrocytes are seeded on the plastic of a six-well dish and grown for 3 weeks. […]
Leptin transcytosis: Experiments were performed on brain capillary endothelial cells in coculture with astrocytes for 16 days. […] At the end of the experiment, the amount of radioactivity of each well was counted. […]
The transport of molecules through the endothelial monolayer was determined for each time point as % passage: % passage of radiolabelled molecule through the endothelium: dpm found in the lower compartment at a time point divided by the initial dpm found in the upper compartment: % transport at 30 min=(lower dpm t30/upper dpm)*100.

Molecule | increase in LDL metabolism (LSR) | Plasma TG 2-3 hours after test meal (ob/ob mice) | amount of leptin transported [1]
C-terminal portion from AA 353 to 541: truncated human LSR construct, AA 353 to 541 (protein, UniProt Q86X29 353-541, looked up, fragment) PGGYPGDVDRSSSAGGQGSYVPLLRDTDSSVASEVRSGYRIQASQQDDSMRVLYYMEKELANFDPSRPGPPSGRVERAMSEVTSLHEDDWRSRPSRGPALTPIRDEEWGGHSPRSPRGWDQEPAREQAGGGWRARRPRARSVDALDDLTPPSTAESGSRSPTSNGGRSRAYMPPRSRSRDDLYDQDDSR | ~2 fold |  | 
Lactoferrin: a milk protein that inhibits the removal of dietary lipid by the liver; inhibitor of LSR (protein, UniProt P02788 20-710, looked up) Lactotransferrin: GRRRSVQWCAVSQPEATKCFQWQRNMRKVRGPPVSCIKRDSPIQCIQAIAENRADAVTLDGGFIYEAGLAPYKLRPVAAEVYGTERQPRTHYYAVAVVKKGGSFQLNELQGLKSCHTGLRRTAGWNVPIGTLRPFLNWTGPPEPIEAAVARFFSASCVPGADKGQFPNLCRLCAGTGENKCAFSSQEPYFSYSGAFKCLRDGAGDVAFIRESTVFEDLSDEAERDEYELLCPDNTRKPVDKFKDCHLARVPSHAVVARSVNGKEDAIWNLLRQAQEKFGKDKSPKFQLFGSPSGQKDLLFKDSAIGFSRVPPRIDSGLYLGSGYFTAIQNLRKSEEEVAARRARVVWCAVGEQELRKCNQWSGLSEGSVTCSSASTTEDCIALVLKGEADAMSLDGGYVYTAGKCGLVPVLAENYKSQQSSDPDPNCVDRPVEGYLAVAVVRRSDTSLTWNSVKGKKSCHTAVDRTAGWNIPMGLLFNQTGSCKFDEYFSQSCAPGSDPRSNLCALCIGDEQGENKCVPNSNERYYGYTGAFRCLAENAGDVAFVKDVTVLQNTDGNNNEAWAKDLKLADFALLCLDGKRKPVTEARSCHLAMAPNHAVVSRMDKVERLKQVLLHQQAKFGRNGSDCPDKFCLFQSETKNLLFNDNTECLARLHGKTTYEKYLGPQYVAGITNLKKCSTSPLLEACEFLRK |  | 2.02 ± 0.26^¶ mg/mL | significantly inhibited
